The test addresses CXCL12 (Homo sapiens, UniProt P48061). Briefly: BLI.

Sequence of CXCL12 (P48061 22-89): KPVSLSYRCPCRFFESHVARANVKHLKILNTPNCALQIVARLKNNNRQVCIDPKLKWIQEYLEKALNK

B1: miniCXCR4-WRAP truncated extracellular/ligand-binding part fused to designed WRAP (protein)
chain: MEGISIYTSDNYTEEMGSGDYDSMKEPCFREENANFNKIFLPTIYSIIFLTGIVGNGLVILVMGYQKKLRSMTDKYRLHLSVADLLFVITLPFWAVDAVANWYFGNFLCKAVHVIYTVNLYSSVLILAFISLDRYLAIVHATNSQRPRKLLAEKVVYVGVWIPALLLTIPDFIFANVSEADDRYICDRFYPNDLWVVVFQFQHIMVGLILPGIVILSCYCIIISKLSHSKGHQKRKALKTTVILILAFFACWLPYYIGISIDSFILLEIIKQGCEFENTVHKWISITEALAFFHCCLNPILYAFLGAKFKTSAQHALTS
modifications: truncated CXCR4 with designed loops fused to WRAP; biotinylated CXCL12
The molecule B1 registered a Kd of 390 nM.

(Values after publication PMC13730216 (2026).)
